Assay results from article PMC12838526.

Target: F-actin (polymerized rabbit skeletal muscle actin) (rabbit) (UniProt P68135)
Assay: co-sedimentation

percent co-sedimented with F-actin [%]	percent co-sedimented with F-actin, αcat ABD added [%]	Substance
55	76	Cno FAB peptide (residues 1967-2051), full-length form (domain or fragment)
32	–	GST-Cno H+C+FAB-His6 (Cno residues 1560-2051) (domain or fragment)
